# Article PMC9336126 (Communications Biology, 2022)
# Legend:
# [1] = target: T1, SARS-CoV-2 spike receptor-binding domain (RBD), residues 333-529 (SARS-CoV-2 ancestral (Wuhan-Hu-1, …, UniProt P0DTC2)); assay: crystal structure; conditions: both partners purified
# T1 construct: also called SARS-CoV-2 RBD; wildtype RBD
# [2] = target: T2, SARS-CoV-2 WT RBD (Acro Biosystems, Cat #SPD-C52H3) (SARS-CoV-2 ancestral wildtype, UniProt P0DTC2); assay: ELISA; conditions: both partners purified
# T2 construct: also called wildtype RBD; ancestral wildtype SARS-CoV-2 RBD; source: bought: Acro Biosystems
Binder,binding result [1],binding result [2]
"ADI-62113 Fab (Fab, V domains shown) VH: QVQLQQSGAEVKKPGASVKLSCKASGYTFSVFPIHWVRQAPGQRLEWMGWHNAGDGDTKYSQKFQGRVTIISDTSASTAYMELSSLKSEDTAVYYCARAARPYYDRRGYFFRADYFQHWGQGTLVTVSS VL: DIQVTQSPSSLSASVGDRVTITCQASQDIKNSLNWYQQKPGKAPKLLISDASNLETGVPSRFSGNGSGTDFTFTISSLQPEDIATYYCQQYDNLITFGPGTKVEIK",binds,–
"ADI-62113 IgG (antibody, V domains shown) VH: QVQLQQSGAEVKKPGASVKLSCKASGYTFSVFPIHWVRQAPGQRLEWMGWHNAGDGDTKYSQKFQGRVTIISDTSASTAYMELSSLKSEDTAVYYCARAARPYYDRRGYFFRADYFQHWGQGTLVTVSS VL: DIQVTQSPSSLSASVGDRVTITCQASQDIKNSLNWYQQKPGKAPKLLISDASNLETGVPSRFSGNGSGTDFTFTISSLQPEDIATYYCQQYDNLITFGPGTKVEIK",–,binds
